Test results from article PMC7376121, “In-Lipid Structure of Pressure-Sensitive Domains Hints Mechanosensitive Channel Functional Diversity” (Biophysical Journal, 2020).

Target: the molecule itself
Assay: PELDOR/DEER; spin-labelled single-cysteine channel in DDM detergent solution (50 mM sodium phosphate pH 7.5, 300 mM NaCl, 0.05% DDM), diluted 1:1 with deuterated ethylene glycol, flash frozen; Q band, 50 K; distances between the labels of the subunits of one channel

B1: Mycobacterium tuberculosis MscL Y87C, MTSSL spin-labelled (TbMscL Y87R1) (natural protein)
chain: MLKGFKEFLARGNIVDLAVAVVIGTAFTALVTKFTDSIITPLINRIGVNAQSDVGILRIGIGGGQTIDLNVLLSAAINFFLIAFAVCFLVVLPYNTLRKKGEVEQPGDTQVVLLTEIRDLLAQTNGDSPGRHGGRGTPSPTDGPRASTESQ
modifications: MTSSL spin label on the cysteine at 87 (R1)
notes: also called TbY87R1
stoichiometry N: 5

B2: Mycobacterium tuberculosis MscL L89C, MTSSL spin-labelled (TbMscL L89R1) (natural protein)
chain: MLKGFKEFLARGNIVDLAVAVVIGTAFTALVTKFTDSIITPLINRIGVNAQSDVGILRIGIGGGQTIDLNVLLSAAINFFLIAFAVYFCVVLPYNTLRKKGEVEQPGDTQVVLLTEIRDLLAQTNGDSPGRHGGRGTPSPTDGPRASTESQ
modifications: MTSSL spin label on the cysteine at 89 (R1)
notes: also called TbL89R1
stoichiometry N: 5

B3: Mycobacterium tuberculosis MscL F88C, MTSSL spin-labelled (TbMscL F88R1) (natural protein)
chain: MLKGFKEFLARGNIVDLAVAVVIGTAFTALVTKFTDSIITPLINRIGVNAQSDVGILRIGIGGGQTIDLNVLLSAAINFFLIAFAVYCLVVLPYNTLRKKGEVEQPGDTQVVLLTEIRDLLAQTNGDSPGRHGGRGTPSPTDGPRASTESQ
modifications: MTSSL spin label on the cysteine at 88 (R1)
notes: also called TbF88R1
stoichiometry N: 5
